Experimental data taken from patent US20200024330A1.

What was measured:
Assay in all cases: cell-based or functional assay
[1] = molecular target: HIV-1 Env of isolate MG RM-A-006 (pseudovirus) (HIV-1)
[2] = molecular target: HIV-1 Env of isolate MG RM-A-007 (pseudovirus) (HIV-1)
[3] = molecular target: HIV-1 Env of isolate CMU02 (pseudovirus) (HIV-1)
[4] = molecular target: HIV-1 Env of isolate MG RM-A-011 (pseudovirus) (HIV-1)
[5] = molecular target: HIV-1 Env of isolate 92UG046 (subtype D), on pseudovirus (HIV-1)
[6] = molecular target: HIV-1 Env of isolate 92RW008 (clade A), on pseudovirus (HIV-1)
[7] = molecular target: HIV-1 Env of isolate 92UG031 (pseudovirus) (HIV-1)
[8] = molecular target: HIV-1 Env of isolate 92UG005 (subtype D), on pseudovirus (HIV-1)
[9] = molecular target: HIV-1 Env of isolate 92WR024 (pseudovirus) (HIV-1)
[10] = molecular target: HIV-1 Env of isolate VLGCA1 (pseudovirus) (HIV-1)
[11] = molecular target: HIV-1 Env of isolate MG RM-A-009 (pseudovirus) (HIV-1)
[12] = molecular target: HIV-1 Env of isolate 92WR026 (pseudovirus) (HIV-1)
[13] = molecular target: HIV-1 Env of isolate MGRM-Chronic-B-008 (HIV-1)
[14] = molecular target: HIV-1 Env of isolate 92UG024 (subtype D), on pseudovirus (HIV-1)
[15] = molecular target: HIV-1 Env of isolate APV_13 (HIV-1)
[16] = molecular target: HIV-1 Env of isolate MGRM-AE-002 (pseudovirus) (HIV-1)
[17] = molecular target: HIV-1 Env of isolate 92TH021 (pseudovirus) (HIV-1)
[18] = molecular target: HIV-1 Env of isolate 92UG114 (subtype D), on pseudovirus (HIV-1)
[19] = molecular target: HIV-1 Env of isolate MG RM-A-012 (pseudovirus) (HIV-1)
[20] = molecular target: HIV-1 Env of isolate 92UG037 (pseudovirus) (HIV-1)
[21] = molecular target: HIV-1 Env of isolate MGRM-AE-005 (pseudovirus) (HIV-1)
[22] = molecular target: HIV-1 Env of isolate MGRM-D-005 (subtype D), on pseudovirus (HIV-1)
[23] = molecular target: HIV-1 Env of isolate MG RM-A-014 (pseudovirus) (HIV-1)
[24] = molecular target: HIV-1 Env of isolate MGRM-Chronic-B-001 (HIV-1)
[25] = molecular target: HIV-1 Env of isolate JRFL (HIV-1)
[26] = molecular target: HIV-1 Env of isolate 92UG001 (subtype D), on pseudovirus (HIV-1)
[27] = molecular target: HIV-1 Env of isolate 92RW009 (clade A), on pseudovirus (HIV-1)
[28] = molecular target: HIV-1 Env of isolate 93TH305 (HIV-1)
[29] = molecular target: HIV-1 Env of isolate MG RM-A-013 (pseudovirus) (HIV-1)
[30] = molecular target: HIV-1 Env of isolate APV_6 (HIV-1)
[31] = molecular target: HIV-1 Env of isolate 98CN009 (subtype CRF07_BC), on pseudovirus (HIV-1)
[32] = molecular target: HIV-1 Env of isolate 93UG077 (pseudovirus) (HIV-1)
[33] = molecular target: HIV-1 Env of isolate MGRM-D-003 (subtype D), on pseudovirus (HIV-1)
[34] = molecular target: HIV-1 Env of isolate MGRM-D-004 (subtype D), on pseudovirus (HIV-1)
[35] = molecular target: HIV-1 Env of isolate MGRM-D-001 (subtype D), on pseudovirus (HIV-1)
[36] = molecular target: HIV-1 Env of isolate MGRM-AE-003 (pseudovirus) (HIV-1)
[37] = molecular target: HIV-1 Env of isolate MGRM-Chronic-B-004 (HIV-1)
[38] = molecular target: HIV-1 Env of isolate MGRM-D-002 (subtype D), on pseudovirus (HIV-1)
[39] = molecular target: HIV-1 Env of isolate CAAN.A2 (HIV-1)
[40] = molecular target: HIV-1 Env of isolate 94UG103 (pseudovirus) (HIV-1)
[41] = molecular target: HIV-1 Env of isolate MGRM-D-008 (subtype D), on pseudovirus (HIV-1)
[42] = molecular target: HIV-1 92BR020 envelope glycoprotein (Env) on pseudovirus (HIV-1)
[43] = molecular target: HIV-1 92RW020 envelope glycoprotein (Env) on pseudovirus (HIV-1)
[44] = molecular target: HIV-1 Env of isolate MGRM-Chronic-B-002 (HIV-1)
[45] = molecular target: HIV-1 Env of isolate 6535.3 (HIV-1)
[46] = molecular target: HIV-1 Env of isolate MGRM-AE-006 (pseudovirus) (HIV-1)
[47] = molecular target: HIV-1 Env of isolate MG RM-A-005 (pseudovirus) (HIV-1)
[48] = molecular target: HIV-1 Env of isolate MG RM-A-010 (pseudovirus) (HIV-1)
[49] = molecular target: HIV-1 Env of isolate MG RM-A-008 (pseudovirus) (HIV-1)
[50] = molecular target: HIV-1 Env of isolate MGRM-AE-004 (pseudovirus) (HIV-1)
[51] = molecular target: HIV-1 Env of isolate 93WR029 (pseudovirus) (HIV-1)
[52] = molecular target: HIV-1 Env of isolate 92WR021 (pseudovirus) (HIV-1)
[53] = molecular target: HIV-1 Env of isolate MGRM-AE-001 (pseudovirus) (HIV-1)
[54] = molecular target: HIV-1 Env of isolate 92WR020 (pseudovirus) (HIV-1)
[55] = molecular target: HIV-1 Env of isolate MGRM-Chronic-B-003 (HIV-1)
[56] = molecular target: HIV-1 Env of isolate 92BR020 (HIV-1)
[57] = molecular target: HIV-1 Env of isolate APV_17 (HIV-1)
[58] = molecular target: HIV-1 Env of isolate 94 KE 105 (pseudovirus) (HIV-1)
[59] = molecular target: HIV-1 Env of isolate 98CN006 (subtype CRF08 BC), on pseudovirus (HIV-1)
[60] = molecular target: HIV-1 92TH021 envelope glycoprotein (Env) on pseudovirus (HIV-1)
[61] = molecular target: HIV-1 92UG024 envelope glycoprotein (Env) on pseudovirus (HIV-1)
[62] = molecular target: HIV-1 CMU02 envelope glycoprotein (Env) on pseudovirus (HIV-1)
[63] = molecular target: aMLV envelope protein on pseudovirus (negative control virus)
[64] = molecular target: HIV-1 92UG005 envelope glycoprotein (Env) on pseudovirus (HIV-1)
[65] = molecular target: HIV-1 MGRM-D-001 envelope glycoprotein (Env) on pseudovirus (HIV-1)
[66] = molecular target: HIV-1 MGRM-AG-005 envelope glycoprotein (Env) on pseudovirus (HIV-1)
[67] = molecular target: HIV-1 MGRM-D-018 envelope glycoprotein (Env) on pseudovirus (HIV-1)

Chain of 4980_N08 (PGT-143) (antibody) (VH): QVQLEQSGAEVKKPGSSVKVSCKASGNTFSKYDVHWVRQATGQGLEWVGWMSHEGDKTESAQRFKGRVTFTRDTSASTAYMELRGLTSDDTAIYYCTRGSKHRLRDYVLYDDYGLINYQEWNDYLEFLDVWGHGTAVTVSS
Chain of 4980_N08 (PGT-143) (antibody) (VL): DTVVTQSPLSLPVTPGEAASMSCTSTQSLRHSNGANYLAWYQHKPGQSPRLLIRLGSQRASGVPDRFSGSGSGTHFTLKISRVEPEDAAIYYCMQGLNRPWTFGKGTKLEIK

4980_N08 (PGT-143) (antibody)
IC50 (µg/mL), pseudovirus neutralization [1]: > 50 µg/mL
IC50 (µg/mL), pseudovirus neutralization [2]: > 50 µg/mL
IC50 (µg/mL), pseudovirus neutralization [3]: > 50 µg/mL
IC50 (µg/mL), pseudovirus neutralization [4]: > 50 µg/mL
IC50, pseudovirus neutralization [5]: > 50 µg/mL
IC50, single-round pseudovirus neutralization [6]: 0.385 µg/mL
IC50 (µg/mL), pseudovirus neutralization [7]: 0.095 µg/mL
IC50, pseudovirus neutralization [8]: > 50 µg/mL
IC50 (µg/mL), pseudovirus neutralization [9]: 0.122 µg/mL
IC50 (µg/mL), pseudovirus neutralization [10]: 17.4 µg/mL
IC50 (µg/mL), pseudovirus neutralization [11]: 0.05 µg/mL
IC50 (µg/mL), pseudovirus neutralization [12]: 5.36 µg/mL
IC50 [13]: > 50 µg/mL
IC50, pseudovirus neutralization [14]: > 50 µg/mL
IC50 [15]: > 50 µg/mL
IC50 (µg/mL), pseudovirus neutralization [16]: > 50 µg/mL
IC50 (µg/mL), pseudovirus neutralization [17]: 0.003 µg/mL
IC50, pseudovirus neutralization [18]: > 50 µg/mL
IC50 (µg/mL), pseudovirus neutralization [19]: > 50 µg/mL
IC50 (µg/mL), pseudovirus neutralization [20]: 0.854 µg/mL
IC50 (µg/mL), pseudovirus neutralization [21]: > 50 µg/mL
IC50, pseudovirus neutralization [22]: 1.41 µg/mL
IC50 (µg/mL), pseudovirus neutralization [23]: 1.07 µg/mL
IC50 [24]: > 50 µg/mL
IC50 [25]: > 50 µg/mL
IC50, pseudovirus neutralization [26]: > 50 µg/mL
IC50, single-round pseudovirus neutralization [27]: 0.01 µg/mL
IC50 [28]: 17.3 µg/mL
IC50 (µg/mL), pseudovirus neutralization [29]: 9.24 µg/mL
IC50 [30]: 14 µg/mL
IC50, pseudovirus neutralization [31]: 10.2 µg/mL
IC50 (µg/mL), pseudovirus neutralization [32]: > 50 µg/mL
IC50, pseudovirus neutralization [33]: > 50 µg/mL
IC50, pseudovirus neutralization [34]: > 50 µg/mL
IC50, pseudovirus neutralization [35]: > 50 µg/mL
IC50 (µg/mL), pseudovirus neutralization [36]: > 50 µg/mL
IC50 [37]: 0.395 µg/mL
IC50, pseudovirus neutralization [38]: > 50 µg/mL
IC50 [39]: > 50 µg/mL
IC50 (µg/mL), pseudovirus neutralization [40]: > 50 µg/mL
IC50, pseudovirus neutralization [41]: 0.153 µg/mL
IC50 (ug/ml), neutralizing activity [42]: > 10 µg/mL
IC50 (ug/ml), neutralizing activity [43]: > 10 µg/mL
IC50 [44]: > 50 µg/mL
IC50 [45]: > 50 µg/mL
IC50 (µg/mL), pseudovirus neutralization [46]: > 50 µg/mL
IC50 (µg/mL), pseudovirus neutralization [47]: 7.48 µg/mL
IC50 (µg/mL), pseudovirus neutralization [48]: 0.019 µg/mL
IC50 (µg/mL), pseudovirus neutralization [49]: > 50 µg/mL
IC50 (µg/mL), pseudovirus neutralization [50]: 0.002 µg/mL
IC50 (µg/mL), pseudovirus neutralization [51]: 0.053 µg/mL
IC50 (µg/mL), pseudovirus neutralization [52]: > 50 µg/mL
IC50 (µg/mL), pseudovirus neutralization [53]: > 50 µg/mL
IC50 (µg/mL), pseudovirus neutralization [54]: > 50 µg/mL
IC50 [55]: 0.854 µg/mL
IC50 [56]: 25.9 µg/mL
IC50 [57]: 1.11 µg/mL
IC50 (µg/mL), pseudovirus neutralization [58]: 0.368 µg/mL
IC50, pseudovirus neutralization [59]: > 50 µg/mL

PGT-121 monoclonal antibody
IC50, pseudovirus neutralization [60]: > 10 µg/mL
IC50, pseudovirus neutralization [61]: > 10 µg/mL
IC50, pseudovirus neutralization [62]: > 10 µg/mL
IC50, pseudovirus neutralization [63]: > 10 µg/mL
IC50, pseudovirus neutralization [64]: > 10 µg/mL

PGT-122 monoclonal antibody
IC50, pseudovirus neutralization [65]: 0.867 µg/mL
IC50, pseudovirus neutralization [60]: > 10 µg/mL
IC50, pseudovirus neutralization [66]: > 10 µg/mL
IC50, pseudovirus neutralization [61]: > 10 µg/mL
IC50, pseudovirus neutralization [62]: > 10 µg/mL
IC50, pseudovirus neutralization [63]: > 10 µg/mL
IC50, pseudovirus neutralization [64]: > 10 µg/mL
IC50, pseudovirus neutralization [67]: 0.0115 µg/mL
